In one assay the target is T1, BPTI(K15L)-III MA phage (bovine; phage M13).
T1 construct: Whole M13 phage (ampicillin resistance) displaying the variant on gene III protein; also called BPTI(K15L)-III phage
Briefly: pH elution from HNE beads. How it is done:
Samples were mixed on a Labquake shaker for 3 hours. The beads were washed with 0.5 ml of TBS/BSA for 5 minutes and recovered by centrifugation. The supernatant was removed and the beads were washed 5 times with 0.5 ml of TBS/0.1% Tween-20. Finally, the beads were resuspended in 0.5 ml of elution buffer (0.1 M HCl containing 1.0 mg/ml BSA adjusted to pH 2.2 with glycine), mixed for 5 minutes and recovered by centrifugation. The supernatant fraction was removed, neutralized with 130 µl of 1 M Tris, pH 8.0, diluted in LB broth, and titered for plaque-forming units on a lawn of cells.

Assay [1] has as its target T2, BPTI(K15L,MGNG)-III MA phage (bovine; phage M13).
T2 construct: also called BPTI3.CL; BPTI-IIIMK (K15L MGNG)
The assay can be described thus: phage eluted from HNE beads.

T2 sequence (chain, as listed by the source): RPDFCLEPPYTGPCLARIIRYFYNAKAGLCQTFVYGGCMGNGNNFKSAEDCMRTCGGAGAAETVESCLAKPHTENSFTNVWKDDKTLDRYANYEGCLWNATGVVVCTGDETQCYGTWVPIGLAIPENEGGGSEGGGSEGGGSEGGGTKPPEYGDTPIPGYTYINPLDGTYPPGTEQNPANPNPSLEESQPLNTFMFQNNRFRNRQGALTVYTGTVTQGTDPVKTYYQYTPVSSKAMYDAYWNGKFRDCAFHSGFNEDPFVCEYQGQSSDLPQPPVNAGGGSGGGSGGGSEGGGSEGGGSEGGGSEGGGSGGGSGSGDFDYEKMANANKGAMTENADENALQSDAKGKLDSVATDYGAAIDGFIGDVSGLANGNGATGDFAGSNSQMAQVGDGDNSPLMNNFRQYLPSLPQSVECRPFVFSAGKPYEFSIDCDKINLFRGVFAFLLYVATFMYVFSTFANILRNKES

B1: human neutrophil elastase (enzyme, UniProt P08246 30-247, looked up)
chain: IVGGRRARPHAWPFMVSLQLRGGHFCGATLIAPNFVMSAAHCVANVNVRAVRVVLGAHNLSRREPTRQVFAVQRIFENGYDPVNLLNDIVILQLNGSATINANVQVAQLPAQGRRLGNGVQCLAMGWGLLGRNRGIASVLQELNVTVVTSLCRRSNVCTLVRGRQAGVCFGDSGSPLVCNGLIHGIASFVRGGCASGLYPDAFAPVAQFVNWIDSIIQ
notes: also called HNE; HNE beads
For B1, the binding result (with BPTI(K15L)-III MA phage; in assay [1]) was “binds” throughout.

These data come from patent US7208293.
